Test results: the nanobody polyreactivity screen of Harvey et al. (2022)

Assay: yeast display, Sf9 membrane polyspecificity reagent, FACS + sequencing; frameworks hold sequencing errors
Outline: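 In a synthetic yeast display library (Saccharomyces cerevisiae BJ5465), nanobody expression was induced with galactose for 36–48 hours. FACS gates were set low and high (top ~1%) using anti-HA fluorescence for expression and streptavidin fluorescence for binding of the Sf9 membrane reagent. Each polyreactivity label is drawn from the gate of origin.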
In the case of “QVQLVESGGGLVQAGGSLRLSCAASGRILQVEYAMGWNIQAPGKERELVAAITESDGSTSYADSVKGRFTISRDNAKNTVYLQMNSLKPEDTAVYYCNVVRGYPNGGYDYWGQGTQVTVSS”, the “polyreactivity (PSR sort gate)” value is reported as “low polyreactivity”. In the case of “QVQLVESGGGLVQAGGSLRLSCAASGRILRDYDMGWYRQATGKERELVAAINWSDGSTYYADSVKGRFTISRDNAKNTVYLQMNSLKPEDTAVYYCAASRWRPLERGTTWLNDYWGQGTQVTVSS”, the “polyreactivity (PSR sort gate)” value is reported as “low polyreactivity”. For “QVQLVESGGGLVQAGGSLRLSCAASGRILRGYVMGWSRQAPGKERELVATITGRGGSTYYADSVKGRFTISRDNAKNTVYLQMNSLKPEDTAVYYCNKDGYPYFGRSEYWGQGTQVTVSS”, the “polyreactivity (PSR sort gate)” value was “low polyreactivity”. With “QVQLVESGGGLVQAGGSLRLSCAASGRILRTNAMGWYRQAPGKERELVAAISSDGSTYYADSVKGRFTISRDNAKNTVYLQMNSLKPEDTAVYYCAARLFYRGPRFDYWGQGTQVTVSS” the “polyreactivity (PSR sort gate)” value was “low polyreactivity”. For “QVQLVESGGGLVQAGGSLRLSCAASGRILRYNAMGWYRQAPGKERELVATITRSAGRTYSADSVKGRFTISRDNAKNTVYLQMNSLKPEDTAVYYCAKDTDISTLHSKGRAKSRYDYWGQGTQVTVSS”, the “polyreactivity (PSR sort gate)” value was “low polyreactivity”. With “QVQLVESGGGLVQAGGSLRLSCAASGRILRYYAMGGYRQAPGKERELVAAITSGGSTTYYADSVKGRFTISRDNAKNTVYLQMNSLKPEDTAVYYCAADRARSSAKYDYWGQGTQVTVSS” the “polyreactivity (PSR sort gate)” value was “low polyreactivity”. In the case of “QVQLVESGGGLVQAGGSLRLSCAASGRILSLYAMGWYRPPPGKERELVAAIRWSGSRTYYADSVKGRFTISRDNAKNTVYLQMNSLKPEDTAVYYCNAWYRLLRSSDYYWGQGTQVTVSS”, the “polyreactivity (PSR sort gate)” value is reported as “high polyreactivity”. With “QVQLVESGGGLVQAGGSLRLSCAASGRILTLYAMGWYRQAPGKERELVAGINRGDVSTYYADSVKGRFTISRDNAKNSVYLQMNSLKPEDTAVYYCYADPPPDYYPDKDNYWGQGSQVTVSS” the “polyreactivity (PSR sort gate)” value was “low polyreactivity”. With “QVQLVESGGGLVQAGGSLRLSCAASGRILTSNAMGWYRQAPGTEMELVAAISWSGGSTYYADSVKGRFTISRDNAKNTVYLQMNSLKPEDTAVYYCAAVSYYASDYRYDYWGQGTQVTVSS” the “polyreactivity (PSR sort gate)” value was “low polyreactivity”. For “QVQLVESGGGLVQAGGSLRLSCAASGRILTTNAMGWYRQAPGKERELVAAITRSGGRTYYADSVKGRFTISRDNAKNTVYLQMNSLKPEDTAVYYCAAATSPGIYDYWGQGTQVTVSS”, the “polyreactivity (PSR sort gate)” value was “high polyreactivity”. In the case of “QVQLVESGGGLVQAGGSLRLSCAASGRILVHNAMGWYRQAPGKERELVAVITARGASTYYADSVKGRFTISRDNAKNTVYLQMNSLKPEDTAVYYCATDKRPKYYNQYDYWGQGTQVTVSS”, the “polyreactivity (PSR sort gate)” value is reported as “low polyreactivity”. With “QVQLVESGGGLVQAGGSLRLSCAASGRILVLNAMGWYRQAPGKERELVADITSGGSTYYADSVKGRFTISRDNAKNTVYLQMNSLKPEDTAVYYCAADWNTYPDYQQSYFVSYEYNYWGQGTQVTVSS” the “polyreactivity (PSR sort gate)” value was “low polyreactivity”. For “QVQLVESGGGLVQAGGSLRLSCAASGRILVRNAMGWYRQAPGQERELVAAITRTGASTYYADSVKGRFTISRDNPKNTVYLQMNSLKPEDTAVYYCAAVWGLPYWVYRYDYWGQGNQVTVSS”, the “polyreactivity (PSR sort gate)” value was “high polyreactivity”. For “QVQLVESGGGLVQAGGSLRLSCAASGRILWWYAMAWYRQAPGKERELVATITYSGGSTYADSVKGRFTISRDNAKNTVYLQMNSLKPVDTAVYYCAARLALYYGKSVYWGQGTQVTVSS”, the “polyreactivity (PSR sort gate)” value was “high polyreactivity”. With “QVQLVESGGGLVQAGGSLRLSCAASGRILWYYAMGWYRQAPGKERELVASISWSGGRTYYADSVKGRFTISRDNAKNTVYLQMNSLKPEDTAVYYCAAQLTRWRKPGDMEYWGQGTQVTVSS” the “polyreactivity (PSR sort gate)” value was “high polyreactivity”. With “QVQLVESGGGLVQAGGSLRLSCAASGRILYDYDMGWYRQAPGKERELVATISRGGGTNYADSVKGRFTISRDNAKNNVYLQMNSLKPEDTAVYYCAAYYSSDGDYWGQGTQVTVSS” the “polyreactivity (PSR sort gate)” value was “low polyreactivity”. For “QVQLVESGGGLVQAGGSLRLSCAASGRILYGYTMGWYRQAPGKERELVAAISSNGDSTYYADSVKGRFTISRDNAKNTVYLQLNSLKPEDTAVYYCAAVSIGPGEYDYWGQGTQVTVSS”, the “polyreactivity (PSR sort gate)” value was “low polyreactivity”. In the case of “QVQLVESGGGLVQAGGSLRLSCAASGRILYSYAMGWYRQAPGKERELVAAISSTGSTYYADSVKGRFTISRDNAKNTVYLQMNSLKPEDTAVYYCAATFYPYQVHHYYYWGKGTQVTVSS”, the “polyreactivity (PSR sort gate)” value is reported as “low polyreactivity”. In the case of “QVQLVESGGGLVQAGGSLRLSCAASGRILYSYAMGWYRQAPGKERELVADITQRGGTTDYADSVKGRFTISRDNAKTTVYVQMNSLKPEDTAVYYCNANSYRSYGGRGGVEYDYWGEGTQVTVSS”, the “polyreactivity (PSR sort gate)” value is reported as “low polyreactivity”. In the case of “QVQLVESGGGLVQAGGSLRLSCAASGRILYSYTMGWYRPAPGKEREFVAAITRSGGGTYYADSVKGRFTISRDNAKNTVYLQMNSLKPEDTAVYYCAATRNPYRRSNYDYWGQGTQVTVSS”, the “polyreactivity (PSR sort gate)” value is reported as “high polyreactivity”. For “QVQLVESGGGLVQAGGSLRLSCAASGRILYWYAMGGYRQAPGKERELVAGIDWSGGSTYYADSVKGRFTISRDNAKNTVYLQMNSLKPEDTAVYYCNAVQNRGRGSHRGESTYYYWGQGTQVTVSS”, the “polyreactivity (PSR sort gate)” value was “low polyreactivity”. For “QVQLVESGGGLVQAGGSLRLSCAASGRILYYYAMGWYRQAPGKERELVAAITWGGGSTYYADSVKGRFTISRDNAKNTVYLQMNSLKPEDTAVYYCNRTFRSRLPTSRGYDYWGQGTQVTVSS”, the “polyreactivity (PSR sort gate)” value was “low polyreactivity”. For “QVQLVESGGGLVQAGGSLRLSCAASGRINAMGWYRQAPGKERELVAVITLRGGSTYYADSVKGRFTISRDNAKNTGYLQMNSLKPEDTAVYYCAAETLVSFWFDYWGQGTQVTVSS”, the “polyreactivity (PSR sort gate)” value was “low polyreactivity”. For “QVQLVESGGGLVQAGGSLRLSCAASGRIRFYAMGWYIQAPGKERELVAAISSSGGSTYYADSVKGRFTISRDNAKNTVYLQMNSLKPEDTAVYYCAAAWYYLGTRAQLYDYWGQGTQVTVSS”, the “polyreactivity (PSR sort gate)” value was “low polyreactivity”. In the case of “QVQLVESGGGLVQAGGSLRLSCAASGRIRRYTMGWYRQAPGKVRELVASISGNGGSTYYADSVKGRFTISRDNAKNTVYLQMNSLKPEDTAVYYCARTKQEYTFGQFYLGDYWGQGTQVTVSS”, the “polyreactivity (PSR sort gate)” value is reported as “low polyreactivity”. With “QVQLVESGGGLVQAGGSLRLSCAASGRISAFNAMGWYRQAPGKERELVAAINVSGGNTYYADSVKGRFTISRDNAKNTVYLQMNSLKPEDTAVYYCAAERRRWGLDYYYWGQGTQVTVSS” the “polyreactivity (PSR sort gate)” value was “high polyreactivity”. For “QVQLVESGGGLVQAGGSLRLSCAASGRISESNDMGWSRQAPWKERELVAAISSSGGSTYYADSVKGRFTISRDNAKNTVYLQMNSLKPEDTAVYYCNAVYYRTVLKIGVYEYDYWGQGTQVTVSS”, the “polyreactivity (PSR sort gate)” value was “low polyreactivity”. For “QVQLVESGGGLVQAGGSLRLSCAASGRISFRILWDGIDRRLGKKGSWLPLLTNTGSTNYADSVKGRFTISRDNAKNTVYLQIHSLKPEDTAVYDCNADPTGGSSYPAYFEYDYWGQGTQVTVSS”, the “polyreactivity (PSR sort gate)” value was “low polyreactivity”. In the case of “QVQLVESGGGLVQAGGSLRLSCAASGRISFRYAMGWSRQAPGKEWELVAAINRGGITNYADSVKGRFTISRDNAKNTVYFQMNSLKPEDTAVYYCAARYASPRYKSKMDYWGQGTQVTVSS”, the “polyreactivity (PSR sort gate)” value is reported as “high polyreactivity”. With “QVQLVESGGGLVQAGGSLRLSCAASGRISGVNAMGWYRQAPGKERELVATISGSGGRTYYADSVKGRFTISRDNAKNTVYLQMNSLKPEDTAVYYCNTLVQRGGYFSLRFDYWGQGTQVTVSS” the “polyreactivity (PSR sort gate)” value was “low polyreactivity”. In the case of “QVQLVESGGGLVQAGGSLRLSCAASGRISLFNAMGWYRQAPGKERELVAAITYTGGSTYYADSVKGRFTISRDNAKNTVYLQMNSLKPEDTAVYYCAAEYYYVYTYDYWGQGTQVTVSS”, the “polyreactivity (PSR sort gate)” value is reported as “high polyreactivity”. With “QVQLVESGGGLVQAGGSLRLSCAASGRISLGNAMGWYRQAPGKERELVAVITRGGRTSYADSVKGRFTISRDNAKNTVYLQMNSLKPEDTAVYYCAAESPVYHLVTYDYWGQGTQVTVSS” the “polyreactivity (PSR sort gate)” value was “high polyreactivity”. For “QVQLVESGGGLVQAGGSLRLSCAASGRISLRNGMGWYRQAPGKERELVAAISRGGSTYYADSVKGRFTISRDNAKNTVYLHMNSLKPEDTAVYYCNAYIRPIYVDDDYWGQSTQVTVSS”, the “polyreactivity (PSR sort gate)” value was “low polyreactivity”. With “QVQLVESGGGLVQAGGSLRLSCAASGRISLVNAMGWYRQAPGKERELVAAITYTGGSTYYADSVKGRFTISRDNAKNTVYLQMNSLKPEDTAVYYCAAEYYYVYTYDYWGQGTQVTVSS” the “polyreactivity (PSR sort gate)” value was “high polyreactivity”. In the case of “QVQLVESGGGLVQAGGSLRLSCAASGRISLYAMGWYRQAPGKEREMVAAINGRGGNTYYADSVKGRFTISRDNAKNTVYLQMNSLKPEDTAVYYCNAVTVNGPYGYDYWGQGTQVTVSS”, the “polyreactivity (PSR sort gate)” value is reported as “high polyreactivity”. In the case of “QVQLVESGGGLVQAGGSLRLSCAASGRISQHNAMGWYRQAPGKERELVAAISWIGTSTYYADSVKGRFTISRDNAKNTVYLQMNSLKPEDTAVYYGWSTRGPPYIYLNYNYWGQGTQVTVSS”, the “polyreactivity (PSR sort gate)” value is reported as “low polyreactivity”. With “QVQLVESGGGLVQAGGSLRLSCAASGRISQTNAMGWYRQAPGKERELVAAISWRGGSTYYADSVKGRFTISRDNAKNTVYLQMNSLKPEDTAVYYCAVRGKYDRHYYWGQGTQVTVSS” the “polyreactivity (PSR sort gate)” value was “high polyreactivity”. In the case of “QVQLVESGGGLVQAGGSLRLSCAASGRISRCYVMGRYRHAPGTERELVAAITWNSGSTYYADSVKGRFTISRDNAKNTVYLQMNSLTPEDTAVYYCAGVLYSRYQQYDYWGQGTQVTVSS”, the “polyreactivity (PSR sort gate)” value is reported as “high polyreactivity”. For “QVQLVESGGGLVQAGGSLRLSCAASGRISRSKTMGWYRQATGKERELFAVINTWIGGSTYYADSVKGRFTISRDNAKNTVYLQMNRQKPEDTAVYYCAADATLWDWWLDYDYWGQVTQVTVSS”, the “polyreactivity (PSR sort gate)” value was “high polyreactivity”. In the case of “QVQLVESGGGLVQAGGSLRLSCAASGRISRSNTMGWYRQGPGKERELVAAISRGGGSTYYADSVKGRFTISRDNAKNTVYLQMNSLKPEDTAVDYCAKAFRGHYWRQGTQVTVSS”, the “polyreactivity (PSR sort gate)” value is reported as “high polyreactivity”. For “QVQLVESGGGLVQAGGSLRLSCAASGRISSAYAMGWYRQAPGKERELVAAISSGTRTNYADSVKGRFTMSRDNAKNTVYLQMNSLKPEDTAVYYCNAVPGYVYYYQYWGQGTQVTVSS”, the “polyreactivity (PSR sort gate)” value was “high polyreactivity”.
